Test results published in paper PMC11589706, “Cryo-EM structure of PML RBCC dimer reveals CC-mediated octopus-like nuclear body assembly mechanism” (Cell Discovery, 2024).

Columns and labels:
[1] = molecular target: the molecule itself; test: SEC; analytical size exclusion on Superdex 200 Increase 10/300 GL in 20 mM HEPES, pH 7.4, 100 mM NaCl, 4% glycerol; all truncations N-terminally fused to MBP
[2] = molecular target: the molecule itself; test: cross-linking; XL-MS: purified SEC fractions crosslinked with 2 mM BS3 at 4 °C for 2 h; trypsin digest, LC-MS/MS, pLink2; intra-subunit XLs of the monomer fraction subtracted from those of the dimer
[3] = molecular target: the molecule itself; test: cryo-EM structure; MBP-PML_(46–256) dimer fraction from SEC, ~3 mg/mL; non-tilt and 40°-tilt data; C2 symmetry imposed; 5.3 Å overall

B1: MBP-PML_(46–391) (domain or fragment, human, UniProt P29590 46-391, looked up)
chain: PASEEEFQFLRCQQCQAEAKCPKLLPCLHTLCSGCLEASGMQCPICQAPWPLGADTPALDNVFFESLQRRLSVYRQIVDAQAVCTRCKESADFWCFECEQLLCAKCFEAHQWFLKHEARPLAELRNQSVREFLDGTRKTNNIFCSNPNHRTPTLTSIYCRGCSKPLCCSCALLDSSHSELKCDISAEIQQRQEELDAMTQALQEQDSAFGAVHAQMHAAVGQLGRARAETEELIRERVRQVVAHVRAQERELLEAVDARYQRDYEEMASRLGRLDAVLQRIRTGSALVQRMKCYASDQEVLDMHGFLRQALCRLRQEEPQSLQAAVRTDGFDEFKVRLQDLSSCIT
notes: source: E. coli BL21(DE3), purified; not shown: MBP, N-terminal, kept
B1: binds [1].

B2: PML_(46–362) (domain or fragment, human, UniProt P29590 46-362, looked up)
chain: PASEEEFQFLRCQQCQAEAKCPKLLPCLHTLCSGCLEASGMQCPICQAPWPLGADTPALDNVFFESLQRRLSVYRQIVDAQAVCTRCKESADFWCFECEQLLCAKCFEAHQWFLKHEARPLAELRNQSVREFLDGTRKTNNIFCSNPNHRTPTLTSIYCRGCSKPLCCSCALLDSSHSELKCDISAEIQQRQEELDAMTQALQEQDSAFGAVHAQMHAAVGQLGRARAETEELIRERVRQVVAHVRAQERELLEAVDARYQRDYEEMASRLGRLDAVLQRIRTGSALVQRMKCYASDQEVLDMHGFLRQALCRLRQE
notes: PML (TRIM19), human, residues 46-362, the complete RBCC domain; also called truncated protein PML_(46–362); complete RBCC domain; source: E. coli BL21(DE3), purified; not shown: MBP, N-terminal, cleaved
B2: binds [2].

B3: MBP-PML_(46–362) (domain or fragment, human, UniProt P29590 46-362, looked up)
chain: B2 chain
notes: PML (TRIM19), human, residues 46-362; source: E. coli BL21(DE3), purified; not shown: MBP, N-terminal, kept
B3: binds [1].

B4: MBP-PML_(46–256) (domain or fragment, human, UniProt P29590 46-256, looked up)
chain: PASEEEFQFLRCQQCQAEAKCPKLLPCLHTLCSGCLEASGMQCPICQAPWPLGADTPALDNVFFESLQRRLSVYRQIVDAQAVCTRCKESADFWCFECEQLLCAKCFEAHQWFLKHEARPLAELRNQSVREFLDGTRKTNNIFCSNPNHRTPTLTSIYCRGCSKPLCCSCALLDSSHSELKCDISAEIQQRQEELDAMTQALQEQDSAFGA
notes: Monomer and dimer fractions were separated by SEC; The cryo-EM model covers P46-S221; also called PML RBCC fragment; PML RBCC dimer; source: E. coli BL21(DE3), purified (amylose column, Superdex 200 Increase SEC); not shown: MBP, N-terminal, kept
B4 was tested, and the “stoichiometry N” value [3] was 2.
